Reference: patent US6548639 (BIOSTAPRO, dated 2003)

Target: T1, MAL-Sbi (aa 33-436, SEQ ID NO:3) (Staphylococcus aureus strain 8325-4, UniProt A6QJQ7 33-436)
T1 construct: Expressed in E. coli from pMAL-c2 (BamHI-SalI insert), purified on amylose resin and then on IgG-Sepharose; also called MAL-fusion of protein Sbi; mature full length protein; not shown: its limits and the v
Assay: blot of the purified proteins overlaid with MAL-Sbi, detected with HRP-labelled chicken anti-Sbi

B1: bovine apolipoprotein H (other)
chain: GRTCPKPDELPFSTVVPLKRTYEPGEQIVFSCQPGYVSRGGIRRFTCPLTGLWPINTLKCMPRVCPFAGILENGTVRYTTFEYPNTISFSCHTGFYLKGASSAKCTEEGKWSPDLPVCAPITCPPPPIPKFASLSVYKPLAGNNSFYGSKAVFKCLPHHAMFGNDTVTCTEHGNWTQLPECREVRCPFPSRPDNGFVNHPANPVLYYKDTATFGCHETYSLDGPEEVECSKFGNWSAQPSCKASCKLSIKRATVIYEGERVAIQNKFKNGMLHGQKVSFFCKHKEKKCSYTEDAQCIDGTIEIPKCFKEHSSLAFWKTDASDVKPC
notes: mature; Serum protein; also called β2-glycoprotein I
B1: binds.
